In publication PMC8759595:

What was measured:
[1] = biological target: endogenous VAPB (COS-7 cells); assay: co-immunoprecipitation (anti-FLAG) with quantified immunoblot; conditions: COS-7 cell lysate; n = 5; parent: est. 1.0; read off a plot
[2] = biological target: endogenous VAPB (COS-7 cells); assay: co-immunoprecipitation (Myc-TRAP) with quantified immunoblot; conditions: read off a plot; for ratio to parent: COS-7 cell lysate, at least three independent IPs, parent: est. 1.0; for other: remaining VAPB binding (% of untreated) (% of untreated): COS-7 cell lysate treated with λ-phosphatase before IP, relative to phosphatase-inhibitor sample

Row | Substance | ratio to parent [2] | further results
1 | FLAG-ACBD4 (from UniProt Q8NC06) S166A; S169A; S171A |  | ratio to parent [1]: 1.7
2 | FLAG-ACBD4 (from UniProt Q8NC06) S166E; S169E; S171E |  | ratio to parent [1]: 4.4
3 | Myc-ACBD5 (from UniProt Q5T8D3-2) S259A | 0.81 | 
4 | Myc-ACBD5 (from UniProt Q5T8D3-2) S259A; S261A | 0.3 | 
5 | Myc-ACBD5 (from UniProt Q5T8D3-2) S259E |  | other: remaining VAPB binding (% of untreated) (% of untreated) ([2]; parent: est. 4.5): 7.5
6 | Myc-ACBD5 (from UniProt Q5T8D3-2) S259E; S261E; S263E |  | other: remaining VAPB binding (% of untreated) (% of untreated) ([2]; parent: est. 0.5): 22
7 | Myc-ACBD5 (from UniProt Q5T8D3-2) S261A; S263A | 0.22 | 
8 | Myc-ACBD5 (from UniProt Q5T8D3-2) S261E |  | other: remaining VAPB binding (% of untreated) (% of untreated) ([2]; parent: est. 4.5): 21
9 | Myc-ACBD5 (from UniProt Q5T8D3-2) S263E |  | other: remaining VAPB binding (% of untreated) (% of untreated) ([2]; parent: est. 4.5): 8
10 | Myc-ACBD5 (from UniProt Q5T8D3-2) T258A; S259A | 0.53 | 

Now from value to substance, other results behind:

Row | ratio to parent [2] | Substance | further results
11 | 0.15 | Myc-ACBD5 (from UniProt Q5T8D3-2) S259A; S261A; S263A | 
12 | 0.35 | Myc-ACBD5 (from UniProt Q5T8D3-2) S261A | 
13 | 0.42 | Myc-ACBD5 (from UniProt Q5T8D3-2) S263A | 
